# Assay results taken from the RNAGym collection of RNA variant scans (doi:10.7554/elife.80360).
# B1: HDV Ribozyme (parent)
# chain: GGCCGGCAUGGUCCCAGCCUCCUCGCUGGCGCCGGCUGGGCAACAUUCCGAGGGGACCGUCCCCUCGGUAAUGGCGAAUGGGACCCA
# Variants of: B1
# Test: self-cleavage, relative activity (ratio to wild type); higher = more cleavage; co-transcriptional
row,Variant,self-cleavage
1,A45U A70G,0.808
2,A45U A56C,0.806
3,A45C G80U,0.0678
4,A45U U46G,0.787
5,A45U U46C,0.665
6,U47A C57G,0.898
7,A45G G52U,0.731
8,A45G U60A,0.866
9,U46C G59C,0.965
10,U46A C62G,0.289
11,U46G C48U,0.751
12,A45G A56G,0.997
13,U46A C86U,0.594
14,U46C G68U,0.719
15,U46A C49A,0.665
16,A45C U79A,0.208
17,U46G C61A,0.617
18,U46A A71G,0.895
19,U47A A71U,0.657
20,U47A A71C,0.85
21,A45G A78U,0.225
22,U47A C48U,0.923
23,U46A G55U,0.85
24,U46A G55C,0.682

row,Variant,self-cleavage
1,A45C G82A,0.208
2,U46G A77C,0.0875
3,U46A G67U,0.789
4,U46A C57G,0.617
5,A45G G80C,0.415
6,U46A G76C,0.665
7,A45U C63G,0.63
8,A45G U65G,0.782
9,A45G U65A,0.767
10,A45G C62U,1.03
11,A45G U46C,0.511
12,A45G U46A,0.806
13,U47A C63U,1
14,A45G G54A,0.814
15,U46G C84A,0.554
16,U46A G81C,0.312
17,U46C C84U,0.485
18,U46G G50C,0.429
19,A45G U72C,0.87
20,A45G U72A,0.604
21,A45G A51G,0.612
22,U47A C62U,1.03
23,U46C A78C,0.0426
24,U46C A78G,0.554

row,Variant,self-cleavage
1,A45C U47G,0.95
2,A45U G68C,0.706
3,U46C C58G,0.582
4,A45G C85G,0.88
5,A45G C85A,1.01
6,A45G U69A,0.895
7,U46C A83C,0.237
8,U46G A71U,0.731
9,A45U C84U,0.623
10,A45U C84G,0.332
11,U46A G82C,0
12,U46G G73A,0.831
13,U46G G53U,0.262
14,U46G A78U,0.0573
15,A45U G76A,0.578
16,A45U G76C,0.689
17,A45C U69A,0.987
18,U46G C66G,0.633
19,U46G C66A,0.308
20,A45U A78C,0.13
21,A45C G81C,0.0489
22,U46A G80U,0.176
23,U46A G80A,0.147
24,A45U C48G,0.739

row,Variant,self-cleavage
1,U46A G50A,0.658
2,U46C G82U,0.138
3,A45G G50C,0.989
4,A45G G50U,1.16
5,A45U G81C,0.287
6,A45U G81U,0.277
7,A45U G82C,0.0898
8,U47A A77U,0.516
9,U47A A77C,0
10,U47A G52C,0.978
11,A45G A83C,0.482
12,U46G G67U,0.302
13,A45U G80C,0
14,A45G G73A,0.966
15,A45G A77U,0.482
16,U46C C86G,0.852
17,A45G C57A,0.979
18,A45U A51U,0.767
19,A45U C61A,0.928
20,U47A A78U,0.295
21,U47A A78G,0.831
22,A45U G53A,0.997
23,U46A G73A,0.554
24,U46A G73C,0.317

row,Variant,self-cleavage
1,U46G C49A,0.391
2,A45U U72C,1.02
3,A45U A71G,0.872
4,U46C U65C,1.2
5,U46G U72A,0.266
6,A45G U47C,0.787
7,U46G G74C,0.201
8,A45U U69G,0.855
9,A45U U69C,0.959
10,U46G C86G,1.01
11,U46G G76U,0.73
12,U47A C85A,0.962
13,U46G C85G,0.665
14,U46C A56C,0.609
15,U46A G54A,0.763
16,U46G G52U,0.237
17,A45U A87C,0.783
18,U46C C57G,1.04
19,A45U G73U,0.302
20,A45U G73A,0.616
21,U46G G59A,1.09
22,U47A C75A,0.138
23,U47A C75U,0.203
24,A45G C64A,0.658

row,Variant,self-cleavage
1,A45U C85U,0.877
2,A45G C48A,1.27
3,U46A C58G,0.712
4,A45U C62G,0.798
5,A45G A71G,0.831
6,A45G A71C,1.01
7,U46A G74U,0.305
8,U46C A70G,1.03
9,A45U C57G,0.831
10,U46C C48A,0.89
11,U46C C48G,1.18
12,U46C G52C,0.72
13,A45G C63A,0.872
14,U46G G81U,0.249
15,A45U G67C,0.719
16,A45U G67A,0.717
17,A45G U79G,0.317
18,U46G C63U,0.813
19,U46C U47G,0.703
20,U46C G50C,0.932
21,U46C G50A,0.698
22,U46G U47G,0.262
23,A45U U65G,0.615
24,U46A C48A,0.665

row,Variant,self-cleavage
1,U46C C62G,0.249
2,U46C G80A,0.185
3,U46C C75A,0.0536
4,U46C C75U,0.0755
5,U46G U60C,0.665
6,U47A A83G,0.734
7,U47A C64U,1.08
8,U47A C66U,1.17
9,U46A C61A,0.8
10,U46C C63G,0.72
11,A45C U65G,0.745
12,U46C C66A,0.849
13,U46C G81A,0.208
14,A45G G81U,0.208
15,A45G G81C,0.147
16,U46G C62A,0.575
17,U46C G76C,0.415
18,U47A C49A,0.886
19,A45G G68A,0.867
20,A45G G68U,0.804
21,A45G G67A,0.678
22,A45G G67U,0.933
23,U46A C66A,0.727
